Where no end group is shown, it is not given here.
B1: Lamin C control of the yeast two-hybrid system (pGBKLaminC) (other)
chain: MKLLSSIEQACDICRLKKLKCSKEKPKCAKCLKNNWECRYSPKTKRSPLTRAHLTEVESRLERLEQLFLLIFPREDLDMILKMDSLQDIKALLTGLFVQDNVNKDAVTDRLASVETDMPLTLRQHRISATSSSEESSNKGQRQLTVSSEEVVSREVSGIKAAYEAELGDARKTLDSVAKERARLQLELSKVREEFKELKARNTKKEGDLIAAQARLKDLEALLNSKEAALSTALSEKRTLEGELHDLRGQVAKLEAALGEAKKQLQDEMLRRVDAENRLQTMKEELDFQKNIYSEELRETKRRHETRLVEID
notes: also called pGBKT7LaminC
B2: GST-cleaved STAAU_R9-561-599 (peptide)
chain: GQETIESLNHKLREATRIGDVELQKYYLQQIVAKNKERM
modifications: not fully specified; also: labelled with [32P] at the HMK phosphate acceptor site when used as probe
notes: not shown: vector residues left after PreScission cleavage, with the HMK phosphorylation site of pGEX-6PK
B3: 96 ORF 78 fused to the carboxyl terminus of the yeast Gal4 DNA binding domain (pGBK 96ORF78) (other)
chain: MKLLSSIEQACDICRLKKLKCSKEKPKCAKCLKNNWECRYSPKTKRSPLTRAHLTEVESRLERLEQLFLLIFPREDLDMILKMDSLQDIKALLTGLFVQDNVNKDAVTDRLASVETDMPLTLRQHRISATSSSEESSNKGQRQLTVSMNIMQFKSLLKSMYEETKQSDPIVANVYIETGWAVNRLLDNNELSPFDDYDRVEKKIMNEINWKKTHIKEC
B5: GST-cleaved 96 ORF 78 polypeptide (from pGEX-6PK 96ORF078) (other)
chain: MNIMQFKSLLKSMYEETKQSDPIVANVYIETGWAVNRLLDNNELSPFDDYDRVEKKIMNEINWKKTHIKEC
modifications: labelled with [^32P] at the heart muscle kinase phosphate acceptor site when used as probe
notes: also called [^32P]-96 ORF 78; purified 96 ORF 78 protein; not shown: vector residues left after PreScission cleavage, with the HMK phosphorylation site of pGEX-6PK

Columns and labels:
[1] = target: T1, STAAU_R9-35 (amino acids 35 to 599 of SEQ ID NO: 2) in pGADT7, Gal4 activation domain fusion (yeast; Staphylococcus aureus, UniProt Q5HFJ8 35-599); assay: yeast two-hybrid, growth on THAL minus medium
T1 construct: Yeast two-hybrid construct
T1 sequence: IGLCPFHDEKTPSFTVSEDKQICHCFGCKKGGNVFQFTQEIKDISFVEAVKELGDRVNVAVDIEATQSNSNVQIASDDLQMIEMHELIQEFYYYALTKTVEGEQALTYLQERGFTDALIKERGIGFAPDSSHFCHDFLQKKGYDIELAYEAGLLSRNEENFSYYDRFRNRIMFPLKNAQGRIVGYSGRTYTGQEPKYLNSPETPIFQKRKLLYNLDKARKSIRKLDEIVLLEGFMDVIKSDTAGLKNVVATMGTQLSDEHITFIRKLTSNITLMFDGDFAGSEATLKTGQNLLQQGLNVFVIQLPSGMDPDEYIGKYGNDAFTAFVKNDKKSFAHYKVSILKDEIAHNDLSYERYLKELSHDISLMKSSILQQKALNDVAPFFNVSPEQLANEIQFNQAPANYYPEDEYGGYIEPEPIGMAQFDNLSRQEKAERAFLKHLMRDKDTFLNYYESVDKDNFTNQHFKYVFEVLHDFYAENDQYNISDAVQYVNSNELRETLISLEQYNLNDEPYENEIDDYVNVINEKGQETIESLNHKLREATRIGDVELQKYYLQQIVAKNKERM

[2] = target: T2, GST/96ORF78 fusion protein from pGEX-6PK 96ORF078 (Staphylococcus aureus bacteriophage 96); assay: affinity blotting (Far western), 32P-labelled probe on renatured blotted protein
T2 construct: immobilized on nitrocellulose after SDS-PAGE, denatured and renatured; also called GST/960RF78; not shown: N-terminal GST tag encoded by pGEX-6P1 (Pharmacia Amersham Biotech); PreScission protease cleavage site and heart muscle kinase (HMK) phosphorylation site of pGEX-6PK (encoded by oligonucle)
T2 chain: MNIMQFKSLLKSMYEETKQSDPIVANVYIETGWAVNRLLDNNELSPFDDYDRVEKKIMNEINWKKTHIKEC

[3] = target: B5; assay: as above
[4] = target: T3, GST (glutathione-S-transferase), negative control (UniProt P08515 1-218 = GST); assay: as above
T3 construct: also called purified GST protein

[5] = target: B3; assay: yeast two-hybrid, growth on THAL minus medium
[6] = target: T1, STAAU_R9-35 (amino acids 35 to 599 of …); assay: cell-based or functional assay
[7] = target: STAAU_R9-35 (amino acids 35 to 599 of SEQ ID NO: 2) in pGBKT7, Gal4 DNA binding domain fusion (yeast; Staphylococcus aureus, UniProt P04386 1-147); assay: cell-based or functional assay
[8] = target: B1; assay: yeast two-hybrid, growth on THAL minus medium
[9] = target: T4, GST/STAAU_R9-561-599 fusion protein from pGEX-6PK_STAAU_R9-561-599 (Staphylococcus aureus); assay: affinity blotting (Far western), 32P-labelled probe on renatured blotted protein
T4 construct: not shown: N-terminal GST tag encoded by pGEX-6P1 (Pharmacia Amersham Biotech); PreScission protease cleavage site, HMK phosphorylation site and cloning-site residues of pGEX-6PK
T4 chain: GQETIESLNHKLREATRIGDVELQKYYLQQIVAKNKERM

[10] = target: B2; assay: as above

T3 sequence (P08515 whole entry): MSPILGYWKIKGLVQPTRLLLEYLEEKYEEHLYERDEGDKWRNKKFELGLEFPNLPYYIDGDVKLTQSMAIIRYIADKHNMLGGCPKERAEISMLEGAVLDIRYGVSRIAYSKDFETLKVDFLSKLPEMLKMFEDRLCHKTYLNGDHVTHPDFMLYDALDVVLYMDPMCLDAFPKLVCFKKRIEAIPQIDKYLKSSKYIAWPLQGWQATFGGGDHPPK

**Q.** Does B1 bind [1]?
**A.** Result: no binding

**Q.** What does the source list for B2?
**A.** binding result [2]: binds; binding result [3]: binds; binding result [4]: no binding

**Q.** Does GQETIESLNHKLREATRIGDVELQKYYLQQIVAKNKERM (other, Yeast two-hybrid construct) bind [5]?
**A.** Result: binds

**Q.** Which β-galactosidase activity [6] does the source give for B3 here?
**A.** Its β-galactosidase activity is 10 fold.

B4: 96 ORF 78 fused to the yeast Gal4 activation domain (pGADT7) (other)
chain: MNIMQFKSLLKSMYEETKQSDPIVANVYIETGWAVNRLLDNNELSPFDDYDRVEKKIMNEINWKKTHIKEC
**Q.** What does the source list for B4?
**A.** β-galactosidase activity [7]: 10 fold; binding result [8]: no binding

**Q.** Does B5 bind [9]?
**A.** Result: binds

**Q.** Does B5 bind [10]?
**A.** Result: binds

**Q.** Does B5 bind [4]?
**A.** Result: no binding

— US7326541 (TARGANTA THERAPEUTICS, dated 2008)
